Data as given in patent publication US20240417475A1.

How the values were obtained:
[1] = biological target: human CD16A-mFc (158F) (sAg_107) (human) (UniProt P08637); experiment: ELISA, plate coated with human CD16A-mFc (158F) (sAg_107), one-site fit, mean of 3
[2] = biological target: CD16A endogenously expressed on primary human NK cells (human) (UniProt P08637); experiment: flow cytometry on primary human NK cells, biotinylated antibody, 37 C, without IgG, mean of 4
[3] = biological target: CD16A endogenously expressed on primary human NK cells (human) (UniProt P08637); experiment: flow cytometry on primary human NK cells at 37 °C, biotinylated antibody, streptavidin-FITC, without polyclonal human IgG
[4] = biological target: human CD16A-mFc (158F) (sAg_107) (human) (UniProt P08637); experiment: ELISA, plate coated with human CD16A-mFc (158F), anti-mouse HRP detection, A450
[5] = biological target: CD16A endogenously expressed on primary human NK cells (human) (UniProt P08637); experiment: flow cytometry on primary human NK cells, biotinylated antibody, 37 C, with 10 mg/mL polyclonal human IgG as competitor, mean of 4
[6] = biological target: human CD16A-mFc (158V) (sAg_149) (human) (UniProt P08637); experiment: ELISA, plate coated with human CD16A-mFc (158V), anti-mouse HRP detection, A450
Sequence of human CD16A-mFc (158V) (sAg_149) (human) (P08637 17-208 F176V limits assumed): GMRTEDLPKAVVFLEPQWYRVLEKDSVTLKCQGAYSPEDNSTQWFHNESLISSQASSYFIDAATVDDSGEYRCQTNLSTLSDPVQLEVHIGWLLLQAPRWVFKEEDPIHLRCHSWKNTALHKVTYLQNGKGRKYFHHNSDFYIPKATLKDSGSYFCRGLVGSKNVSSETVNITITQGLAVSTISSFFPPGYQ

Sequence of CD16A endogenously expressed on primary human NK cells (human) (P08637 17-254 limits assumed): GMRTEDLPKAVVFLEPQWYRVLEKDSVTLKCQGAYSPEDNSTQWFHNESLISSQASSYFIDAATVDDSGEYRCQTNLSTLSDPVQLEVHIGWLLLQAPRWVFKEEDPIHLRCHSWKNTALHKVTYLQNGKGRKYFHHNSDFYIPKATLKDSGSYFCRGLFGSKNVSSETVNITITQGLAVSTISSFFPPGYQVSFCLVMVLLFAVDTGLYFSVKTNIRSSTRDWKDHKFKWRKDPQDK
Sequence of human CD16A-mFc (158F) (sAg_107) (human) (P08637 17-208 limits assumed): as the sequence (P08637 17-208 F176V limits assumed) above, with V160F counted along it

Kd [1]: 20 pM | Kd [2]: 300 pM | EC50 (read off the curve) [3]: 300 pM | EC50 (read off the curve) [4]: 30 pM | Kd [5]: 54600 pM | EC50 (read off the curve) [6]: 200 pM
Substance: anti-human CD16 antibody clone 3G8
